{"source": "IntAct's records for PubMed 29892012", "parents": {"B1": {"name": "Vesicle transport protein USE1 (Homo sapiens), Q9NZ43 (parent)", "chain": "MAASRLELNLVRLLSRCEAMAAEKRDPDEWRLEKYVGALEDMLQALKVHASKPASEVINEYSWKVDFLKGMLQAEKLTSSSEKALANQFLAPGRVPTTARERVPATKTVHLQSRARYTSEMRSELLGTDSAEPEMDVRKRTGVAGSQPVSEKQLAAELDLVLQRHQNLQEKLAEEMLGLARSLKTNTLAAQSVIKKDNQTLSHSLKMADQNLEKLKTESERLEQHTQKSVNWLLWAMLIIVCFIFISMILFIRIMPKLK"}, "B2": {"name": "Zinc finger protein 64 (Homo sapiens), Q9NTW7 (parent)", "chain": "MNASSEGESFAGSVQIPGGTTVLVELTPDIHICGICKQQFNNLDAFVAHKQSGCQLTGTSAAAPSTVQFVSEETVPATQTQTTTRTITSETQTITVSAPEFVFEHGYQTYLPTESNENQTATVISLPAKSRTKKPTTPPAQKRLNCCYPGCQFKTAYGMKDMERHLKIHTGDKPHKCEVCGKCFSRKDKLKTHMRCHTGVKPYKCKTCDYAAADSSSLNKHLRIHSDERPFKCQICPYASRNSSQLTVHLRSHTASELDDDVPKANCLSTESTDTPKAPVITLPSEAREQMATLGERTFNCCYPGCHFKTVHGMKDLDRHLRIHTGDKPHKCEFCDKCFSRKDNLTMHMRCHTSVKPHKCHLCDYAAVDSSSLKKHLRIHSDERPYKCQLCPYASRNSSQLTVHLRSHTGDTPFQCWLCSAKFKISSDLKRHMIVHSGEKPFKCEFCDVRCTMKANLKSHIRIKHTFKCLHCAFQGRDRADLLEHSRLHQADHPEKCPECSYSCSSAAALRVHSRVHCKDRPFKCDFCSFDTKRPSSLAKHVDKVHRDEAKTENRAPLGKEGLREGSSQHVAKIVTQRAFRCETCGASFVRDDSLRCHKKQHSDQSENKNSDLVTFPPESGASGQLSTLVSVGQLEAPLEPSQDL", "partner": "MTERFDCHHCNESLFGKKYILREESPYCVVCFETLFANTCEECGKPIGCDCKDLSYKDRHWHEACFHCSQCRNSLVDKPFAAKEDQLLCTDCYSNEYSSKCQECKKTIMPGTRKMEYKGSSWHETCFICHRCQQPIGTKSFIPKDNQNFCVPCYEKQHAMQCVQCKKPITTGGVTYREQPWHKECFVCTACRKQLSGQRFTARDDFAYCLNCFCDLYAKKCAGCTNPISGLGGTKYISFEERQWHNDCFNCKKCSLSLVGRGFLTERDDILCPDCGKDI"}, "B3": {"name": "Leucine-zipper-like transcriptional regulator 1 (Homo sapiens), Q8N653 (parent)", "chain": "MAGPGSTGGQIGAAALAGGARSKVAPSVDFDHSCSDSVEYLTLNFGPFETVHRWRRLPPCDEFVGARRSKHTVVAYKDAIYVFGGDNGKTMLNDLLRFDVKDCSWCRAFTTGTPPAPRYHHSAVVYGSSMFVFGGYTGDIYSNSNLKNKNDLFEYKFATGQWTEWKIEGRLPVARSAHGATVYSDKLWIFAGYDGNARLNDMWTIGLQDRELTCWEEVAQSGEIPPSCCNFPVAVCRDKMFVFSGQSGAKITNNLFQFEFKDKTWTRIPTEHLLRGSPPPPQRRYGHTMVAFDRHLYVFGGAADNTLPNELHCYDVDFQTWEVVQPSSDSEVGGAEVPERACASEEVPTLTYEERVGFKKSRDVFGLDFGTTSAKQPTQPASELPSGRLFHAAAVISDAMYIFGGTVDNNIRSGEMYRFQFSCYPKCTLHEDYGRLWESRQFCDVEFVLGEKEECVQGHVAIVTARSRWLRRKITQARERLAQKLEQEAAPVPREAPGVAAGGARPPLLHVAIREAEARPFEVLMQFLYTDKIKYPRKGHVEDVLLIMDVYKLALSFQLCRLEQLCRQYIEASVDLQNVLVVCESAARLQLSQLKEHCLNFVVKESHFNQVIMMKEFERLSSPLIVEIVRRKQQPPPRTPLDQPVDIGTSLIQDMKAYLEGAGAEFCDITLLLDGHPRPAHKAILAARSSYFEAMFRSFMPEDGQVNISIGEMVPSRQAFESMLRYIYYGEVNMPPEDSLYLFAAPYYYGFYNNRLQAYCKQNLEMNVTVQNVLQILEAADKTQALDMKRHCLHIIVHQFTKVSKLPTLRSLSQQLLLDIIDSLASHISDKQCAELGADI"}, "B4": {"name": "DNA topoisomerase 3-beta-1 (Homo sapiens), O95985 (parent)", "chain": "MKTVLMVAEKPSLAQSIAKILSRGSLSSHKGLNGACSVHEYTGTFAGQPVRFKMTSVCGHVMTLDFLGKYNKWDKVDPAELFSQAPTEKKEANPKLNMVKFLQVEGRGCDYIVLWLDCDKEGENICFEVLDAVLPVMNKAHGGEKTVFRARFSSITDTDICNAMACLGEPDHNEALSVDARQELDLRIGCAFTRFQTKYFQGKYGDLDSSLISFGPCQTPTLGFCVERHDKIQSFKPETYWVLQAKVNTDKDRSLLLDWDRVRVFDREIAQMFLNMTKLEKEAQVEATSRKEKAKQRPLALNTVEMLRVASSSLGMGPQHAMQTAERLYTQGYISYPRTETTHYPENFDLKGSLRQQANHPYWADTVKRLLAEGINRPRKGHDAGDHPPITPMKSATEAELGGDAWRLYEYITRHFIATVSHDCKYLQSTISFRIGPELFTCSGKTVLSPGFTEVMPWQSVPLEESLPTCQRGDAFPVGEVKMLEKQTNPPDYLTEAELITLMEKHGIGTDASIPVHINNICQRNYVTVESGRRLKPTNLGIVLVHGYYKIDAELVLPTIRSAVEKQLNLIAQGKADYRQVLGHTLDVFKRKFHYFVDSIAGMDELMEVSFSPLAATGKPLSRCGKCHRFMKYIQAKPSRLHCSHCDETYTLPQNGTIKLYKELRCPLDDFELVLWSSGSRGKSYPLCPYCYNHPPFRDMKKGMGCNECTHPSCQHSLSMLGIGQCVECESGVLVLDPTSGPKWKVACNKCNVVAHCFENAHRVRVSADTCSVCEAALLDVDFNKAKSPLPGDETQHMGCVFCDPVFQELVELKHAASCHPMHRGGPGRRQGRGRGRARRPPGKPNPRRPKDKMSALAAYFV"}, "B5": {"name": "Pleckstrin homology domain-containing family G member 2 (Homo sapiens), Q9H7P9 (parent)", "chain": "MPEGAQGLSLSKPSPSLGCGRRGEVCDCGTVCETRTAPAAPTMASPRGSGSSTSLSTVGSEGDPAPGPTPACSASRPEPLPGPPIRLHLSPVGIPGSARPSRLERVAREIVETERAYVRDLRSIVEDYLGPLLDGGVLGLSVEQVGTLFANIEDIYEFSSELLEDLENSSSAGGIAECFVQRSEDFDIYTLYCMNYPSSLALLRELSLSPPAALWLQERQAQLRHSLPLQSFLLKPVQRILKYHLLLQELGKHWAEGPGTGGREMVEEAIVSMTAVAWYINDMKRKQEHAARLQEVQRRLGGWTGPELSAFGELVLEGAFRGGGGGGPRLRGGERLLFLFSRMLLVAKRRGLEYTYKGHIFCCNLSVSESPRDPLGFKVSDLTIPKHRHLLQAKNQEEKRLWIHCLQRLFFENHPASIPAKAKQVLLENSLHCAPKSKPVLEPLTPPLGSPRPRDARSFTPGRRNTAPSPGPSVIRRGRRQSEPVKDPYVMFPQNAKPGFKHAGSEGELYPPESQPPVSGSAPPEDLEDAGPPTLDPSGTSITEEILELLNQRGLRDPGPSTHDIPKFPGDSQVPGDSETLTFQALPSRDSSEEEEEEEEGLEMDERGPSPLHVLEGLESSIAAEMPSIPCLTKIPDVPNLPEIPSRCEIPEGSRLPSLSDISDVFEMPCLPAIPSVPNTPSLSSTPTLSCDSWLQGPLQEPAEAPATRRELFSGSNPGKLGEPPSGGKAGPEEDEEGVSFTDFQPQDVTQHQGFPDELAFRSCSEIRSAWQALEQGQLARPGFPEPLLILEDSDLGGDSGSGKAGAPSSERTASRVRELARLYSERIQQMQRAETRASANAPRRRPRVLAQPQPSPCLPQEQAEPGLLPAFGHVLVCELAFPLTCAQESVPLGPAVWVQAAIPLSKQGGSPDGQGLHVSNLPKQDLPGIHVSAATLLPEQGGSRHVQAPAATPLPKQEGPLHLQVPALTTFSDQGHPEIQVPATTPLPEHRSHMVIPAPSTAFCPEQGHCADIHVPTTPALPKEICSDFTVSVTTPVPKQEGHLDSESPTNIPLTKQGGSRDVQGPDPVCSQPIQPLSWHGSSLDPQGPGDTLPPLPCHLPDLQIPGTSPLPAHGSHLDHRIPANAPLSLSQELPDTQVPATTPLPLPQVLTDIWVQALPTSPKQGSLPDIQGPAAAPPLPEPSLTDTQVQKLTPSLEQKSLIDAHVPAATPLPERGGSLDIQGLSPTPVQTTMVLSKPGGSLASHVARLESSDLTPPHSPPPSSRQLLGPNAAALSRYLAASYISQSLARRQGPGGGAPAASRGSWSSAPTSRASSPPPQPQPPPPPARRLSYATTVNIHVGGGGRLRPAKAQVRLNHPALLASTQESMGLHRAQGAPDAPFHM"}, "B6": {"name": "Keratin, type I cuticular Ha8 (Homo sapiens), O76015 (parent)", "chain": "MTSSYSSSSCPLGCTMAPGARNVSVSPIDIGCQPGAEANIAPMCLLANVAHANRVRVGSTPLGRPSLCLPPTCHTACPLPGTCHIPGNIGICGAYGENTLNGHEKETMQFLNDRLANYLEKVRQLEQENAELEATLLERSKCHESTVCPDYQSYFHTIEELQQKILCSKAENARLIVQIDNAKLAADDFRIKLESERSLRQLVEADKCGTQKLLDDATLAKADLEAQQESLKEEQLSLKSNHEQEVKILRSQLGEKLRIELDIEPTIDLNRVLGEMRAQYEAMLETNRQDVEQWFQAQSEGISLQDMSCSEELQCCQSEILELRCTVNALEVERQAQHTLKDCLQNSLCEAEDRFGTELAQMQSLISNVEEQLSEIRADLERQNQEYQVLLDVKTRLENEIATYRNLLESEDCKLPCNPCSTSPSCVTAPCAPRPSCGPCTTCGPTCGASTTGSRF", "partner": "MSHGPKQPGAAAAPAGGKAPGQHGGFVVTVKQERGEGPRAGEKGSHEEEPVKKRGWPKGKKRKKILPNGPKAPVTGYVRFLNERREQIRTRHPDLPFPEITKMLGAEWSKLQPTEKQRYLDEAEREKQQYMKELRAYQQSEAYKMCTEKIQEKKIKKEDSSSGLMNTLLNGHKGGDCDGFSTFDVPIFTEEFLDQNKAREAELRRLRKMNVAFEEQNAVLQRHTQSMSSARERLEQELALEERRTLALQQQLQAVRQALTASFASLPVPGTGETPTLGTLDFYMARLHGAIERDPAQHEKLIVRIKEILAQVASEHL"}}}
{"variants_of": "B1", "conditions": "with bscl2_human BSCL2, Q96G97"}
{"variant": "T217M", "effect of a mutation on the interaction": "with no effect"}
{"variants_of": "B1", "conditions": "with creb3_human CREB3, O43889"}
{"variant": "T217M", "effect of a mutation on the interaction": "with no effect"}
{"variants_of": "B2", "conditions": "with fhl2_human FHL2, Q14192"}
{"variant": "D227E", "effect of a mutation on the interaction": "with no effect"}
{"variants_of": "B3", "conditions": "with gcp4_human TUBGCP4, Q9UGJ1"}
{"variant": "G663V", "effect of a mutation on the interaction": "disrupting interaction strength"}
{"variants_of": "B3", "conditions": "with gcp4_human TUBGCP4, Q9UGJ1", "remark": "another data set of the same source"}
{"variant": "E721K", "effect of a mutation on the interaction": "with no effect"}
{"variants_of": "B4", "conditions": "with spre2_human SPRED2, Q7Z698"}
{"variant": "C666R", "effect of a mutation on the interaction": "disrupting interaction strength"}
{"variants_of": "B5", "conditions": "with actn3_human ACTN3, Q08043"}
{"variant": "V1248I", "effect of a mutation on the interaction": "with no effect"}
{"variants_of": "B6", "conditions": "with hm20b_human HMG20B"}
{"variant": "N270K", "effect of a mutation on the interaction": "with no effect"}
